B1: scFv; the commonest letter at each place (parent)
chain 1: EVKLDETGGGLVQPGRPMKLSCVASGFTFSDYWMNWVRQSPEKGLEWVAQIRNKPYNYETYYSDSVKGRFTISRDDSKSSVYLQMNNLRVEDMGIYYCTGSYYGMDYWGQGTSVTVS
chain 2: DVVMTQTPLSLPVSLGDQASISCRSSQSLVHSNGNTYLRWYLQKPGQSPKVLIYKVSNRFSGVPDRFSGSGSGTDFTLKISRVEAEDLGVYFCSQSTHVPWTFGGGTKLEIK

In the data set “fluorescein” the parent is B1. Put plainly: Kd (Tite-Seq). The following applies: with fluorescein; format: scFv 4-4-20, heavy + light.
The variants in data set [1] derive from B1. In words: yeast surface expression (ratio to wild type); higher = more expressed. Particulars: format: scFv 4-4-20, heavy + light.

As to chain 1 W108E G109K, the equilibrium dissociation constant (Kd) with fluorescein was at least 10 µM. In data set [1], the yeast surface expression was 0.403.

In the case of chain 1 W108E G109T, the Kd with fluorescein was at least 10 µM. Also, the yeast surface expression in data set [1] turned out to be 0.269.

On to chain 1 W108G G109V, for which the Kd with fluorescein was at least 10 µM. For the same variant, the yeast surface expression in data set [1] worked out at 0.228.

Regarding chain 1 W33H M34V V37L, the Kd with fluorescein was at least 10 µM. Further, the yeast surface expression in data set [1] came out at 0.434.

With chain 1 W33T M34S V37E, the Kd with fluorescein is at least 10 µM. In addition, the yeast surface expression in data set [1] was 0.787.

Turning to chain 1 W33R M34D, in the data set with fluorescein, the dissociation constant (Kd) was at least 10 µM. In data set [1], the yeast surface expression turned out to be 0.356.

For chain 1 W33R M34I, the Kd in the data set with fluorescein was at least 10 µM. The yeast surface expression in data set [1] was 0.644.

Turning to chain 1 W33G V37Y, the Kd with fluorescein was at least 10 µM. In data set [1], the yeast surface expression amounted to 0.672.

Take chain 1 W33G V37L: in the data set with fluorescein, the Kd was at least 10 µM. In addition, the yeast surface expression in data set [1] came out at 0.49.

Consider chain 1 W33N W36R, for which the Kd with fluorescein is at least 10 µM. In addition, the yeast surface expression in data set [1] is 0.764.

Regarding chain 1 W108A G109C, the Kd in the data set with fluorescein is at least 10 µM. Besides, the yeast surface expression in data set [1] came out at 0.197.

Consider chain 1 W108A G109H, for which the Kd in the data set with fluorescein was at least 10 µM. Also, in data set [1], the yeast surface expression turned out to be 0.356.

With chain 1 W33E V37T, the dissociation constant Kd in the data set with fluorescein was at least 10 µM. Also, the yeast surface expression in data set [1] turned out to be 0.486.

Take chain 1 W33E V37Y: the dissociation constant (Kd) with fluorescein was at least 10 µM. The yeast surface expression in data set [1] was 1.

For chain 1 W33E V37C, the Kd in the data set with fluorescein was at least 10 µM. In data set [1], the yeast surface expression was 0.709.

For chain 1 W33E V37L, the Kd with fluorescein was at least 10 µM. In data set [1], the yeast surface expression was 0.674.

On to chain 1 W33T N35Q, for which the Kd in the data set with fluorescein is at least 10 µM. Further, the yeast surface expression in data set [1] is 0.887.

With chain 1 W36Y V37I, the Kd with fluorescein was found to be 0.0205 µM. Besides, the yeast surface expression in data set [1] was determined as 0.75.

Take chain 1 W33C N35W: in the data set with fluorescein, the Kd was 5.37 µM. In data set [1], the yeast surface expression was 0.456.

Take chain 1 T28Y N35S: the equilibrium dissociation constant (Kd) with fluorescein is at least 10 µM. For the same variant, in data set [1], the yeast surface expression stood at 0.691.

chain 1 T28Y N35E: the Kd with fluorescein was at least 10 µM. For the same variant, the yeast surface expression in data set [1] was 0.319.

Regarding chain 1 T28Y N35Y, in the data set with fluorescein, the equilibrium dissociation constant (Kd) is at least 10 µM. Besides, the yeast surface expression in data set [1] was found to be 0.86.

Regarding chain 1 W36T V37L, the equilibrium dissociation constant (Kd) with fluorescein was at least 10 µM. For the same variant, the yeast surface expression in data set [1] came to 0.507.

For chain 1 W36T V37D, the Kd with fluorescein was at least 10 µM. In data set [1], the yeast surface expression was 0.28.

Consider chain 1 W36T V37M, for which the equilibrium dissociation constant (Kd) with fluorescein is at least 10 µM. Besides, in data set [1], the yeast surface expression stood at 0.422.

For chain 1 W33Q W36T, the Kd in the data set with fluorescein was at least 10 µM. Besides, the yeast surface expression in data set [1] was 0.706.

For the variant chain 1 W33Q W36V, the Kd with fluorescein was at least 10 µM. Moreover, the yeast surface expression in data set [1] was found to be 0.361.

Take chain 1 W33Q W36S: in the data set with fluorescein, the Kd is 7.33 µM. Moreover, in data set [1], the yeast surface expression was 0.839.

Turning to chain 1 W33Q W36K, in the data set with fluorescein, the Kd was at least 10 µM. In data set [1], the yeast surface expression turned out to be 0.466.

As to chain 1 W33C M34C W36A, the Kd in the data set with fluorescein was at least 10 µM. The yeast surface expression in data set [1] stood at 0.449.

Consider chain 1 W33T M34W, for which the equilibrium dissociation constant (Kd) in the data set with fluorescein is at least 10 µM. The yeast surface expression in data set [1] is 0.967.

As for chain 1 W33N V37Q, the Kd with fluorescein is at least 10 µM. Besides, the yeast surface expression in data set [1] was determined as 0.415.

For the variant chain 1 W33N V37N, in the data set with fluorescein, the Kd was at least 10 µM. In addition, the yeast surface expression in data set [1] stood at 0.652.

For the variant chain 1 W36F V37C, the equilibrium dissociation constant (Kd) in the data set with fluorescein was found to be 0.000454 µM. Besides, in data set [1], the yeast surface expression came out at 0.75.

In the case of chain 1 W36F V37Y, the dissociation constant (Kd) with fluorescein is at least 10 µM. Also, the yeast surface expression in data set [1] worked out at 0.738.

Regarding chain 1 W36F V37N, the Kd with fluorescein stood at 0.00746 µM. For the same variant, the yeast surface expression in data set [1] was 0.509.

On to chain 1 T28Y F29W, for which the dissociation constant Kd with fluorescein was at least 10 µM. For the same variant, the yeast surface expression in data set [1] came to 0.672.

Take chain 1 W36Q V37T: the Kd in the data set with fluorescein was at least 10 µM. The yeast surface expression in data set [1] stood at 0.396.

Turning to chain 1 W108E, the dissociation constant (Kd) with fluorescein was at least 10 µM. Also, the yeast surface expression in data set [1] stood at 0.463.

For the variant chain 1 W108F, the dissociation constant Kd with fluorescein is at most 0.000316 µM. Further, in data set [1], the yeast surface expression was found to be 0.644.

As for chain 1 W108M, the dissociation constant Kd in the data set with fluorescein was at most 0.000316 µM. Also, the yeast surface expression in data set [1] was found to be 1.

With chain 1 W108P, in the data set with fluorescein, the Kd turned out to be 0.00272 µM. In addition, in data set [1], the yeast surface expression turned out to be 0.625.

chain 1 W108C: the dissociation constant Kd in the data set with fluorescein is 0.000646 µM. The yeast surface expression in data set [1] stood at 0.717.

chain 1 W108L: the Kd with fluorescein was at most 0.000316 µM. Besides, in data set [1], the yeast surface expression turned out to be 0.827.

As to chain 1 W108H, in the data set with fluorescein, the dissociation constant (Kd) stood at 0.00468 µM. In addition, the yeast surface expression in data set [1] was found to be 0.333.

For chain 1 W108G, the dissociation constant (Kd) with fluorescein stood at 0.102 µM. The yeast surface expression in data set [1] was found to be 0.48.

As to chain 1 W108D, the Kd in the data set with fluorescein is at least 10 µM. For the same variant, the yeast surface expression in data set [1] stood at 0.345.

With chain 1 W108I, the equilibrium dissociation constant (Kd) in the data set with fluorescein is at most 0.000316 µM. For the same variant, the yeast surface expression in data set [1] came out at 0.882.

In the case of chain 1 W108K, the Kd in the data set with fluorescein was 0.0221 µM. The yeast surface expression in data set [1] was 0.504.

On to chain 1 W108N, for which the Kd with fluorescein stood at 0.031 µM. In data set [1], the yeast surface expression was found to be 0.468.

For chain 1 W108A, the Kd with fluorescein came out at 0.00209 µM. The yeast surface expression in data set [1] was found to be 0.588.

In the case of chain 1 W33G W36I, the equilibrium dissociation constant (Kd) in the data set with fluorescein is at least 10 µM. In addition, in data set [1], the yeast surface expression turned out to be 0.622.

Turning to chain 1 W33R N35Y, in the data set with fluorescein, the dissociation constant Kd was at least 10 µM. For the same variant, in data set [1], the yeast surface expression came to 0.794.

With chain 1 W33K W36Y, in the data set with fluorescein, the equilibrium dissociation constant (Kd) was at least 10 µM. The yeast surface expression in data set [1] stood at 0.396.

With chain 1 W33I N35W, the Kd with fluorescein is at least 10 µM. Besides, the yeast surface expression in data set [1] was determined as 0.803.

On to chain 1 W33G M34I, for which the Kd in the data set with fluorescein is at least 10 µM. Moreover, the yeast surface expression in data set [1] was 0.433.

Turning to chain 1 T28W F29R, the Kd in the data set with fluorescein is at least 10 µM. Also, the yeast surface expression in data set [1] is 0.615.

As for chain 1 T28W F29M, the dissociation constant (Kd) with fluorescein was 0.0139 µM. For the same variant, the yeast surface expression in data set [1] turned out to be 0.897.

Values taken from the FLAb antibody collection (doi:10.7554/elife.23156).
